One substance from PMC6755086 can be followed below.

The assay deals with Xanthamonas campestris p.v. campestris Class 2 OLD protein, full-length (Xcc^FL, residues 1-595) (Xanthamonas campestris p.v. campestris). Description: SEC-MALS. For orientation: Size exclusion chromatography separates by hydrodynamic size, large species first.

As for “Xanthamonas campestris p.v. campestris Class 2 OLD protein, full-length (Xcc^FL, residues 1-595) (enzyme)”, the stoichiometry N (in general, the number of molecules, sites or subunits per partner or assembly) was 4.
